According to article PMC2174347 (The Journal of Cell Biology, 2000):

Target: wild-type ezrin 1-586 (UniProt P15311 1-586)
Test: solid phase assay

B1: ezrin 1-333 K63N, K64N, K253N, K254N, K262N, and K263N (domain or fragment, UniProt P15311 1-333, looked up)
chain: MPKPINVRVTTMDAELEFAIQPNTTGKQLFDQVVKTIGLREVWYFGLHYVDNKGFPTWLKLDNNVSAQEVRKENPLQFKFRAKFYPEDVAEELIQDITQKLFFLQVKEGILSDEIYCPPETAVLLGSYAVQAKFGDYNKEVHKSGYLSSERLIPQRVMDQHKLTRDQWEDRIQVWHAEHRGMLKDNAMLEYLKIAQDLEMYGINYFEIKNKKGTDLWLGVDALGLNIYEKDDKLTPKIGFPWSEIRNISFNDNNFVIKPIDNNAPDFVFYAPRLRINKRILQLCMGNHELYMRRRKPDTIEVQQMKAQAREEKHQKQLERQQLETEKKRRETV
binding result: binds
